Experimental data reported in the supplement of paper PMC7125110.
± gives the standard error. For some assays here: Fewer inactive variants are shown than the library holds.

B1: glmS ribozyme (parent)
chain: AUAAAAGCGCCAGAACUACAGAAAUGUAGUUGACGAGGAGGAGGUUUAUCGAAUUUUCGGCGGAUGCCUCCAAA

Columns and labels:
Conditions in all cases: with glucosamine-6-phosphate
[1] = variants of: B1; assay: kcat; higher = faster cleavage; RNA array
How it was run: (§1)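 Barcoded ribozyme variants on sequenced MiSeq chips were transcribed in situ by E. coli RNA polymerase and followed at 37 °C through a hybridised Cy3 probe. Glucosamine-6-phosphate at 40 μM to 10 mM in HEPES/KCl/Mg(OAc)2 buffer was flowed in, and tiles were imaged over ~14 h. Signals were normalised to baseline and to non-cleaving reference variants, and per-tile medians were fit to one- or two-exponential decays to give kobs. Weighted Michaelis–Menten fits across concentrations gave kcat and KM.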

[2] = variants of: B1; assay: KM; higher = weaker cofactor use; RNA array
How it was run: as §1

[3] = variants of: B1; assay: self-cleavage kobs at 40 uM GlcN6P; higher = faster cleavage; RNA array
How it was run: as §1

[4] = variants of: B1; assay: self-cleavage kobs at 160 uM GlcN6P; higher = faster cleavage; RNA array
How it was run: as §1

[5] = variants of: B1; assay: self-cleavage kobs at 640 uM GlcN6P; higher = faster cleavage; RNA array
How it was run: as §1

[6] = variants of: B1; assay: self-cleavage kobs at 2500 uM GlcN6P; higher = faster cleavage; RNA array
How it was run: as §1

[7] = variants of: B1; assay: self-cleavage kobs at 10000 uM GlcN6P; higher = faster cleavage; RNA array
How it was run: as §1

Variant: G40U U47C
- kcat [1]: 0.00133 ± 0.00022 s⁻¹
- KM [2]: 2010 ± 550 µM
- self-cleavage kobs at 40 uM GlcN6P [3]: 3.24e-05 ± 8.9e-06 s⁻¹
- self-cleavage kobs at 160 uM GlcN6P [4]: 0.000104 ± 2.3e-05 s⁻¹
- self-cleavage kobs at 640 uM GlcN6P [5]: 0.000287 ± 3.6e-05 s⁻¹
- self-cleavage kobs at 2500 uM GlcN6P [6]: 0.000958 ± 0.00014 s⁻¹
- self-cleavage kobs at 10000 uM GlcN6P [7]: 0.00106 ± 0.00013 s⁻¹

Variant: G44U U46G
- kcat [1]: 0.000218 ± 4.7e-05 s⁻¹
- KM [2]: 3350 ± 1300 µM
- self-cleavage kobs at 40 uM GlcN6P [3]: < 1e-05 s⁻¹
- self-cleavage kobs at 640 uM GlcN6P [5]: 2.83e-05 ± 1e-05 s⁻¹
- self-cleavage kobs at 2500 uM GlcN6P [6]: 0.000102 ± 1.5e-05 s⁻¹
- self-cleavage kobs at 10000 uM GlcN6P [7]: 0.000146 ± 3.9e-05 s⁻¹

Variant: G40U C70G
- kcat [1]: 0.000495 ± 8.8e-05 s⁻¹
- KM [2]: 1770 ± 560 µM
- self-cleavage kobs at 40 uM GlcN6P [3]: 2.91e-05 ± 7.3e-06 s⁻¹
- self-cleavage kobs at 160 uM GlcN6P [4]: 4.28e-05 ± 7.1e-06 s⁻¹
- self-cleavage kobs at 640 uM GlcN6P [5]: 0.000121 ± 1e-05 s⁻¹
- self-cleavage kobs at 2500 uM GlcN6P [6]: 0.000346 ± 3.4e-05 s⁻¹
- self-cleavage kobs at 10000 uM GlcN6P [7]: 0.000404 ± 3.4e-05 s⁻¹

Variant: G40U C70U
- kcat [1]: 0.00235 ± 0.00039 s⁻¹
- KM [2]: 2200 ± 510 µM
- self-cleavage kobs at 40 uM GlcN6P [3]: 5.55e-05 ± 7.2e-06 s⁻¹
- self-cleavage kobs at 160 uM GlcN6P [4]: 0.000139 ± 1.4e-05 s⁻¹
- self-cleavage kobs at 640 uM GlcN6P [5]: 0.000566 ± 6.5e-05 s⁻¹
- self-cleavage kobs at 2500 uM GlcN6P [6]: 0.00132 ± 0.00013 s⁻¹
- self-cleavage kobs at 10000 uM GlcN6P [7]: 0.00186 ± 0.0002 s⁻¹

Variant: G44C U47C
- kcat [1]: 1.4e-05 ± 4.3e-06 s⁻¹

Variant: G44C U47A
- kcat [1]: 8.35e-05 ± 6.6e-06 s⁻¹
- KM [2]: 1270 ± 350 µM
- self-cleavage kobs at 2500 uM GlcN6P [6]: 5.07e-05 ± 1.6e-05 s⁻¹
- self-cleavage kobs at 10000 uM GlcN6P [7]: 7.67e-05 ± 1.8e-05 s⁻¹

Variant: G41U U69C
- kcat [1]: 4.52e-05 ± 7.4e-06 s⁻¹
- self-cleavage kobs at 2500 uM GlcN6P [6]: 3.82e-05 ± 1.3e-05 s⁻¹

Variant: G40U A48G
- kcat [1]: 8.97e-05 ± 4.3e-05 s⁻¹
- self-cleavage kobs at 40 uM GlcN6P [3]: < 1e-05 s⁻¹
- self-cleavage kobs at 10000 uM GlcN6P [7]: 3.18e-05 ± 8.1e-06 s⁻¹

Variant: G44A G66U
- kcat [1]: 2.15e-05 ± 1.4e-06 s⁻¹
- KM [2]: 2150 ± 520 µM

Variant: G40C U55A
- kcat [1]: 9.7e-05 ± 1.9e-05 s⁻¹
- self-cleavage kobs at 160 uM GlcN6P [4]: 0.000138 ± 6.6e-05 s⁻¹
- self-cleavage kobs at 640 uM GlcN6P [5]: 0.000125 ± 2.3e-05 s⁻¹
- self-cleavage kobs at 2500 uM GlcN6P [6]: 7.26e-05 ± 1.4e-05 s⁻¹
- self-cleavage kobs at 10000 uM GlcN6P [7]: 0.000133 ± 2.8e-05 s⁻¹

Variant: G41A U49G
- kcat [1]: 3.79e-05 ± 6.4e-06 s⁻¹
- self-cleavage kobs at 2500 uM GlcN6P [6]: 3.9e-05 ± 1e-05 s⁻¹
- self-cleavage kobs at 10000 uM GlcN6P [7]: 3.34e-05 ± 8.6e-06 s⁻¹

Variant: G44C C71U
- kcat [1]: 1.52e-05 ± 3.3e-06 s⁻¹

Variant: G41A A64G
- kcat [1]: 0.00209 ± 0.00064 s⁻¹
- KM [2]: 5950 ± 2800 µM
- self-cleavage kobs at 160 uM GlcN6P [4]: 7.21e-05 ± 2e-05 s⁻¹
- self-cleavage kobs at 2500 uM GlcN6P [6]: 0.00071 ± 0.00016 s⁻¹
- self-cleavage kobs at 10000 uM GlcN6P [7]: 0.00128 ± 0.00023 s⁻¹

Variant: G41U U54G
- kcat [1]: 0.000782 ± 0.00031 s⁻¹
- self-cleavage kobs at 40 uM GlcN6P [3]: 0.000133 ± 1.6e-05 s⁻¹
- self-cleavage kobs at 160 uM GlcN6P [4]: 0.000463 ± 0.00012 s⁻¹
- self-cleavage kobs at 640 uM GlcN6P [5]: 0.000458 ± 9.3e-05 s⁻¹
- self-cleavage kobs at 2500 uM GlcN6P [6]: 0.00134 ± 0.00026 s⁻¹

Variant: G40C C61U
- kcat [1]: < 1e-05 s⁻¹
- self-cleavage kobs at 40 uM GlcN6P [3]: < 1e-05 s⁻¹
- self-cleavage kobs at 160 uM GlcN6P [4]: < 1e-05 s⁻¹
- self-cleavage kobs at 640 uM GlcN6P [5]: < 1e-05 s⁻¹

Variant: G44A U55G
- kcat [1]: 0.000367 ± 0.00015 s⁻¹
- self-cleavage kobs at 640 uM GlcN6P [5]: 0.000141 ± 3.3e-05 s⁻¹
- self-cleavage kobs at 2500 uM GlcN6P [6]: 0.000228 ± 4.2e-05 s⁻¹

Variant: G43A U55A
- kcat [1]: 0.00026 ± 7.6e-05 s⁻¹
- self-cleavage kobs at 10000 uM GlcN6P [7]: 8.23e-05 ± 1.2e-05 s⁻¹

Variant: A42U U56A
- kcat [1]: 0.000109 ± 7.4e-06 s⁻¹
- KM [2]: 3230 ± 710 µM
- self-cleavage kobs at 2500 uM GlcN6P [6]: 4.97e-05 ± 1.4e-05 s⁻¹
- self-cleavage kobs at 10000 uM GlcN6P [7]: 8.21e-05 ± 9.2e-06 s⁻¹
